2 molecules from US6187552A, “Method for identifying inhibitors of JAK2/cytokine receptor binding” (Pharmacia & Upjohn Company, priority 1998, dated 2001) can be followed below.

The subject of data set [1] is peptide 4 (βc peptide) bound to SPA beads. Briefly: SPA competition: unlabeled JAK2 against labeled JAK2/NJAK2 for peptide 4 bound to SPA beads. It is filed as binding, human.
Data set [2] deals with T1, human JAK2 (Homo sapiens, UniProt O60674).
T1 construct: NJAK2 = N-terminal 294 residues
The data set is described as follows: SPA: binding of 3H-JAK2 to βc peptides on streptavidin-coated beads. To be noted: JAK2 from 32.5 nM to 16.25 nM; FIG. 14. The procedure: Cells were lysed by dounce homogenization (20 strokes) in 1X phosphate buffered saline (PBS), pH 7.5 at 4 C. […] For some experiments, the JAK2 protein (0.15 mg/ml), aliquoted into 7 equivalent tubes, was then subjected to ultracentrifugation in an Airfuge using an A-110 rotor at an average of 164,000×g for a period of 6 hours at ambient temperature. At zero time, and at each subsequent hour thereafter, a tube of JAK2 was removed for analyses (ELISA, SDS polyacrylamide gel electrophoresis, and Western blotting).
Three different labeling reactions were done using ^3 H-N-succinimidyl propionate (^3 H-NSP, Amersham Life Sciences, Arlington Heights, Ill.). One reaction was done using 0.5 mg of purified JAK2 in 0.1 M borate buffer, pH 8.5, with a reaction volume of 150 μl and an incubation time of one hour on ice with dried 1 mCi of ^3 H-NSP (toluene was removed using a stream of nitrogen). […] Another reaction was done using the buffer 0.1 M sodium phosphate, pH 8.0, and a similar volume as before. One milligram of JAK2 in 1.2 ml of phosphate buffer was incubated for three hours on ice. […]
Triplicate reactions were done for each data point. […] The plates were then read on a MicroBeta (Wallac) set to read scintillation due to tritium.
Either ^3 H-JAK2 or ^3 H-NJAK2 was added to the wells and, after incubation, the signals measured. […]

Data set [3] is described as follows: JAK2 remaining soluble after ultracentrifugation (ELISA) / aggregation. Type of data set: physicochemical. On the procedure:
Recombinant JAK2 protein containing the Flag affinity label ([…]) [SEQ ID NO:20] was expressed in either SF9 or HI-5 cells as described. Cells were lysed by dounce homogenization (20 strokes) in 1X phosphate buffered saline (PBS), pH 7.5 at 4 C. Clarified extract was passed through an anti-Flag immunoaffinity column (Kodak, New Haven, Conn.) and purified recombinant JAK2 was eluted by competition with a solution of Flag peptide at a concentration of 250 ug/ml in 1×PBS. Purity was characterized by a single band on SDS polyacrylamide gels. For some experiments, the JAK2 protein (0.15 mg/ml), aliquoted into 7 equivalent tubes, was then subjected to ultracentrifugation in an Airfuge using an A-110 rotor at an average of 164,000×g for a period of 6 hours at ambient temperature. At zero time, and at each subsequent hour thereafter, a tube of JAK2 was removed for analyses (ELISA, SDS polyacrylamide gel electrophoresis, and Western blotting).
Aliquots of the above supernatants were removed and subjected to an ELISA assay. Each solution was diluted 1:50 with 0.1M sodium carbonate, pH 9.0, and applied in multiple concentrations to a 96 well plate. After an overnight incubation, each well was washed with 0.1% BSA in 1×PBS, pH 7.5 (wash buffer), followed by continued incubation for an additional hour at 4 C. The wells were then incubated with 150 ul of C20 anti-JAK2 antibody (Santa Cruz Biotechnology, Santa Cruz, Calif.) in wash buffer for 1 hour at 4 C., followed by extensive washes with wash buffer. Secondary antibody (150 ul of alkaline phosphatase labeled goat anti-rabbit IgG (Promega, Madison, Wis.) at a dilution of 1:2000) was applied for 1 hour at 4 C., followed by extensive washes with buffer. Finally, wells were incubated with 0.1 M Tris HCl, 5 mM MgCl2, pH 9.5, and then with the same buffer (150 ul) containing 5 mg/ml p-nitrophenylphosphate (pNPP). Color formation was read by a SpectraMax 250 plate reader set at an absorbance of 405 nm. The linear phase of each concentration curve was chosen for each of the time points (0,1,2,3,4,5,and 6 hours of ultracentrifugation) in order to calculate the relative amount of recombinant JAK2 remaining in the supernatant of each fraction.
To see whether more highly aggregated JAK2 could be separated by ultracentifugation from less aggregated or monomeric JAK2, a sample of freshly purified JAK2 at a defined concentration was centrifuged in an airfuge as described in Materials and Methods. Samples were taken at 7 different time points over a 6 hour period to assess the amount of JAK2 which remained in the supernatant phase. After 1 hour at 164,000×g, 40 to 50% of the original JAK2 was detected, a value which remained relatively constant for up to 5 additional hours in this experiment. […] Since the supernatant was removed from below the meniscus by pipetting, a determination of the molecular weight could not be established in this experiment.
Background: An ELISA detects its analyte on a solid surface through an enzyme-linked reagent.

B1: JAK2 from the supernatant: supernatant after 1 hour of ultracentrifugation of JAK2 (protein, UniProt O60674 1-1132, looked up)
Tyrosine-protein kinase JAK2: MGMACLTMTEMEGTSTSSIYQNGDISGNANSMKQIDPVLQVYLYHSLGKSEADYLTFPSGEYVAEEICIAASKACGITPVYHNMFALMSETERIWYPPNHVFHIDESTRHNVLYRIRFYFPRWYCSGSNRAYRHGISRGAEAPLLDDFVMSYLFAQWRHDFVHGWIKVPVTHETQEECLGMAVLDMMRIAKENDQTPLAIYNSISYKTFLPKCIRAKIQDYHILTRKRIRYRFRRFIQQFSQCKATARNLKLKYLINLETLQSAFYTEKFEVKEPGSGPSGEEIFATIIITGNGGIQWSRGKHKESETLTEQDLQLYCDFPNIIDVSIKQANQEGSNESRVVTIHKQDGKNLEIELSSLREALSFVSLIDGYYRLTADAHHYLCKEVAPPAVLENIQSNCHGPISMDFAISKLKKAGNQTGLYVLRCSPKDFNKYFLTFAVERENVIEYKHCLITKNENEEYNLSGTKKNFSSLKDLLNCYQMETVRSDNIIFQFTKCCPPKPKDKSNLLVFRTNGVSDVPTSPTLQRPTHMNQMVFHKIRNEDLIFNESLGQGTFTKIFKGVRREVGDYGQLHETEVLLKVLDKAHRNYSESFFEAASMMSKLSHKHLVLNYGVCVCGDENILVQEFVKFGSLDTYLKKNKNCINILWKLEVAKQLAWAMHFLEENTLIHGNVCAKNILLIREEDRKTGNPPFIKLSDPGISITVLPKDILQERIPWVPPECIENPKNLNLATDKWSFGTTLWEICSGGDKPLSALDSQRKLQFYEDRHQLPAPKWAELANLINNCMDYEPDFRPSFRAIIRDLNSLFTPDYELLTENDMLPNMRIGALGFSGAFEDRDPTQFEERHLKFLQQLGKGNFGSVEMCRYDPLQDNTGEVVAVKKLQHSTEEHLRDFEREIEILKSLQHDNIVKYKGVCYSAGRRNLKLIMEYLPYGSLRDYLQKHKERIDHIKLLQYTSQICKGMEYLGTKRYIHRDLATRNILVENENRVKIGDFGLTKVLPQDKEYYKVKEPGESPIFWYAPESLTESKFSVASDVWSFGVVLYELFTYIEKSKSPPAEFMRMIGNDKQGQMIVFHLIELLKNNGRLPRPDGCPDEIYMIMTECWNNNVNQRPSFRDLALRVDQIRDNMAG
As for B1, the “apparent Kd versus more aggregated JAK2” value in data set [1] (inferred from competition of supernatant, FIG. 18) is reported as “higher apparent Kd than the more aggregated JAK2”. The “competition with labeled JAK2 versus starting material” value in data set [1] (supernatant after ultracentrifugation, peptide 4 on beads, FIG. 18) is given as “competed less effectively than the starting material”.

B2: JAK2: Recombinant JAK2 protein containing the Flag affinity label, expressed in SF9 or HI-5 cells (protein)
chain: MACLTMTEMEGTSTSSIYQNGDISGNANSMKQIDPVLQVYLYHSLGKSEADYLTFPSGEYVAEEICIAASKACGITPVYHNMFALMSETERIWYPPNHVFHIDESTRHNVLYRIRFYFPRWYCSGSNRAYRHGISRGAEAPLLDDFVMSYLFAQWRHDFVHGWIKVPVTHETQEECLGMAVLDMMRIAKENDQTPLAIYNSISYKTFLPKCIRAKIQDYHILTRKRIRYRFRRFIQQFSQCKATARNLKLKYLINLETLQSAFYTEKFEVKEPGSGPSGEEIFATIIITGNGGIQWSRGKHKESETLTEQDLQLYCDFPNIIDVSIKQANQEGSNESRVVTIHKQDGKNLEIELSSLREALSFVSLIDGYYRLTADAHHYLCKEVAPPAVLENIQSNCHGPISMDFAISKLKKAGNQTGLYVLRCSPKDFNKYFLTFAVERENVIEYKHCLITKNENEEYNLSGTKKNFSSLKDLLNCYQMETVRSDNIIFQFTKCCPPKPKDKSNLLVFRTNGVSDVPTSPTLQRPTHMNQMVFHKIRNEDLIFNESLGQGTFTKIFKGVRREVGDYGQLHETEVLLKVLDKAHRNYSESFFEAASMMSKLSHKHLVLNYGVCVCGDENILVQEFVKFGSLDTYLKKNKNCINILWKLEVAKQLAWAMHFLEENTLIHGNVCAKNILLIREEDRKTGNPPFIKLSDPGISITVLPKDILQERIPWVPPECIENPKNLNLATDKWSFGTTLWEICSGGDKPLSALDSQRKLQFYEDRHQLPAPKWAELANLINNCMDYEPDFRPSFRAIIRDLNSLFTPDYELLTENDMLPNMRIGALGFSGAFEDRDPTQFEERHLKFLQQLGKGNFGSVEMCRYDPLQDNTGEVVAVKKLQHSTEEHLRDFEREIEILKSLQHDNIVKYKGVCYSAGRRNLKLIMEYLPYGSLRDYLQKHKERIDHIKLLQYTSQICKGMEYLGTKRYIHRDLATRNILVENENRVKIGDFGLTKVLPQDKEYYKVKEPGESPIFWYAPESLTESKFSVASDVWSFGVVLYELFTYIEKSKSPPAEFMRMIGNDKQGQMIVFHLIELLKNNGRLPRPDGCPDEIYMIMTECWNNNVNQRPSFRDLALRVDQIRDNMAGDYKDDDDKN
modifications: Flag tag
With B2, in data set [2], the “signal obtained on lowering final JAK2 concentration” value is on record as “decreases significantly”. Further, the “competition of labeled JAK2 binding” value in data set [1] (5-fold excess unlabeled JAK2, peptide 4) is “competed significantly”. Further, the “competition of labeled NJAK2 binding” value in data set [1] (10-fold excess unlabeled JAK2, peptide 4) was “reduced almost to background”. Besides, the “% JAK2 Remaining” value was 100% in data set [3] (0 hours ultracentrifugation); 46.0% in data set [3] (1 hour ultracentrifugation, 164,000×g); 39.6% in data set [3] (2 hours ultracentrifugation, 164,000×g); 32.5% in data set [3] (3 hours ultracentrifugation, 164,000×g); 43.7% in data set [3] (4 hours ultracentrifugation, 164,000×g); 44.1% in data set [3] (5 hours ultracentrifugation, 164,000×g). The “% JAK2 Remaining” value in data set [3] (6 hours ultracentrifugation, 164,000×g) was 41.3%. In data set [3] (after 1 hour at 164,000×g, relatively constant up to 5 additional hours), the “original JAK2 detected in supernatant” value is recorded as 40 to 50%. Further, the “JAK2 remaining soluble as defined by ELISA” value in data set [3] (after ultracentrifugation) stood at 50%. Also, the “aggregation by size exclusion chromatography” value in data set [3] (data not shown) is recorded as “exhibited degrees of aggregation”.
